In the supplement of paper PMC10567573:

B1: DLC1 (parent)
chain: AIQGISEKEKAEIEAKEACDWLRA

Variants of: B1
Assay: protein stability index of a GFP-peptide fusion (GPS, HEK-293T) (PSI 1-6); higher = more stable
Conditions: c terminus: a fixed tail appended
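Note: lentivirally expressed fusions sorted by FACS into six bins by GFP to DsRed ratio, PSI derived from sequencing read proportions per bin multiplied by bin number.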

Protein stability index of substitutions, site by site:
A1: S 4.67; V 4.18; P 4.47; H 4.21; R 4.55; W 3.23; K 4.32; Q 4.23; C 4.09; Y 3.71; D 4.96; L 4.21; T 4.6; I 3.94; M 4.09
Q3: R 4.43; H 4.68; V 4.34; F 3.61; G 4.33; M 4.18; K 4.27; C 4.28; A 4.83; T 4.81; Y 3.47; L 3.54; P 4.19; N 3.77; W 3.58; I 3.88; D 5.2
A15: F 3.57; Y 4.33; R 4.18; Q 4.52; K 4.61; T 3.76; P 4.51; G 3.97; S 4.81; M 4.24; L 4; E 4.81
L22: Q 5.03; S 5.09; F 4.61; M 4.73; P 5.2; D 5.49; N 5.24; A 5.03; K 5.38; H 5; T 4.82; E 5.62; W 4.28; R 4.5; Y 4.22
A11: D 5.18; R 4.23; I 3.67; Y 4.16; H 4.34; S 4.79; T 4.67; V 4.61; Q 4.57; W 3.53; M 3.99; P 4.51; L 4.23
E17: D 4.18; Q 3.73; F 3.55; L 3.76; V 3.65; G 4.18; H 4.18; N 3.63; T 4.34; R 3.7; I 4.12; Y 3.79; M 3.86; A 4.14; C 3.92; W 3.27; P 4.41
S6: G 4.39; A 4.31; W 3.71; T 4.73; Q 4.74; P 4.88; Y 3.48; L 3.56; I 3.58; R 4.46; F 3.86; C 4.3
I2: M 4.94; D 4.99; G 4.57; Y 4.24; Q 4.79; W 4.37; S 4.99; T 5; H 4.9; L 4.91; P 4.96; A 4.94; C 4.88; F 4.81
E14: L 3.87; G 3.73; H 3.74; N 3.54; K 3.5; R 3.61; M 3.59; V 3.24; Q 4.36; T 4.34; Y 3.91; A 4.1
K16: S 4.1; M 4.24; W 4.09; I 4.16; G 4.35; C 4.14; H 4.32; F 3.61; R 4.55; A 4.35; N 4.82; P 3.58; E 5.21; L 4.1; D 5.1
E7: I 3.63; C 3.61; F 3.44; P 3.71; N 3.72; Q 4.06; L 3.06; T 4.14; W 3.58; V 3.88
A24: Y 4.72; N 4.75; C 4.55; Q 4.67; L 4.46; V 4.58; P 4.64; F 4.32; S 4.65; K 4; H 4.66; R 4.23; I 4.44; W 3.7
C19: M 4.39; I 4.09; V 4.77; N 4.89; E 5.65; F 4.47; A 4.79; Q 4.77; G 4.43; S 4.6; K 4.63; H 4.75; D 5.19; R 4.45
E12: L 3.72; T 4.32; Y 3.53; F 3.82; S 4.02; H 3.46; D 4.43; V 4.17; N 4.5; I 4.02; Q 4.18; G 4.42; W 3.26
R23: Y 3.8; K 4.62; T 5.14; S 4.95; V 4.31; F 4.33; I 4.68; W 4.91; P 4.7; E 5.36; G 4.42; A 4.67; D 5.42; H 4.75
E9: W 3.63; V 3.88; Q 4.14; F 2.69; C 3.76; L 2.97; D 4.2; M 3.22; R 3.08; P 4.08; G 4.23; S 4.22
I5: T 4.87; F 4.18; P 4.46; L 4.36; Y 4.45; Q 4.97; D 5.19; M 5.16; W 4.47; K 4.71; G 4.9; R 4.57; V 4.54; H 4.94; E 4.35
W21: S 5.05; T 5.17; F 4.66; K 5.44; Y 4.68; I 4.62; C 5.35; D 5.77; V 4.89; P 5; H 5.29; L 5.22; M 5.6
G4: T 4.2; Y 3.73; N 3.67; I 3.15; D 4.79; S 4.45; W 3.8; M 3.92; E 4.53; H 4.36; A 4.47; L 3.27; F 4.24; R 3.08
I13: R 4.53; D 5.06; G 5.08; A 4.7; P 5.13; F 3.94; Y 4.46; Q 4.44; M 4.78; C 5.09; E 5.08; T 4.16; S 4.85; L 4.21; H 4.88; V 4.64
K10: P 4.18; V 3.9; A 4.67; W 3.73; E 4; N 4.71; S 4.61; F 3.71; D 4.47; Y 4.11; T 4.68; R 4.04; Q 4.57; H 4.38; L 4.08
D20: V 3.81; W 3.98; R 3.19; S 4.28; A 3.99; P 3.56; H 3.95; T 4.12; F 3.75; Y 3.97; L 3.68; Q 3.91; G 3.56; E 4.27
K8: H 4.4; I 4.5; N 3.88; M 4.49; Y 3.69; W 3.68; T 5.01; E 5.05; C 4; V 4.2; L 3.85; A 3.75; D 4.61
A18: T 4.35; G 4.35; P 4.88; V 4.26; N 4.42; H 4.8; C 4.43; S 4.31; K 4.06; M 4.57; W 4.27; Y 4.33; I 4.14; Q 4.28; R 4.56
